From the nanobody polyreactivity screen of Harvey et al. (2022)

Assay: yeast display, Sf9 membrane polyspecificity reagent, FACS + sequencing; frameworks hold sequencing errors
Method in brief: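 A nanobody's polyreactivity label depends on the gate it was sorted from. Yeast display cells were stained with 10% biotinylated, detergent-solubilized Sf9 membrane reagent for 1 hour at 4 °C, enriched on streptavidin microbeads and sorted by FACS. The low and high (top ~1%) gates were set on anti-HA fluorescence for expression and streptavidin fluorescence for reagent binding.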

## QVQLVESGGGLVQAGGSLRLSCAASGFIFEWYDMGWYRQAPGKERELVASISWSGGSTYYADSVKGRFTISRDNAKNTVYLQMNSLKPEDTAVYYCNTPSYTYWHWYDYWGQGTQVTVSS
  polyreactivity (PSR sort gate): high polyreactivity

## QVQLVESGGGLVQAGGSLRLSCAASGSTFPHYAMGWYRQAPGKERELVAAISVRGGRTYYADSVKGRFTISRDNAKNTVYLQMNSLKPEDTAVYYCNKYYYFTKYGYWGQGTQVTVSS
  polyreactivity (PSR sort gate): high polyreactivity

## QVQLVESGGGLVQAGGSLRLSCAASGRTFRYYTMGWYRQAPGKERELVAAISWSSGSTYYADSVKGRFTISRDNAKNTVYLQMNSLKPEDTAVYYCAASRVRREYVGQDVGFVGYDSWGQGTQVTVSS
  polyreactivity (PSR sort gate): high polyreactivity

## QVQLVESGGGLVQAGGSLRISCAASGLIFGRYAMGWYRQAPGKERELVAAISSSGVRTYYADSVKGRFTISRDNAKNTVYLQMNSLKPEDTAVYYCAAAYWSSREDTVIKRYYWGQGTQVTVSS
  polyreactivity (PSR sort gate): high polyreactivity

## QVKLEESGGGLVQAGGSLRLSCAASGRTFTTYSMGCYRQAPGKERELVAAISGSGGSTYYADSVKGRFTISRDNAKNSVYVQMNSLKPEDTAVYYCATAYYYHGGYYYPYDDYWGQGTQVTVSS
  polyreactivity (PSR sort gate): low polyreactivity

## QVQLVESGGGLVQAGGSLRISCAASGSIFRPNAMGRYRQAPGKERELVAAINTSDDSTYYADSVKGRFTISRDNAKNTVYLQMNSLKQEDTAVYYCAAEYYAYPYGDYYDYWGQGTQVTVSS
  polyreactivity (PSR sort gate): low polyreactivity

## QVQLVESGGGLVQAGGSLRLSCAASGRIFPAYAMGWYRQAPGKERELVAAISWTGTSTYYADSVKGRFTISRDNAKNTVYLQMNSLKPEDTAVYYCAARSYRLRSAYNYWGQGTQVTVSS
  polyreactivity (PSR sort gate): high polyreactivity

## QVQLVESGGGLVQAGGSLRLSCAASGITFYRNAMGWYRQAPGKEMELVAAITWNGGRTYYADSVKGRFTISRDNAKNTVYLQMNSLKPEDTAVYYCAADSGTRNLASYRYYYWGQGTQVTVSS
  polyreactivity (PSR sort gate): low polyreactivity

## QVQLVESRGVLVQAGGSLRLSCAASGFTFDYNAMGWYRQAPGKERELVAVISSSGSRTYYADSVKGRFTISRDNAKNTVYLQMNSLKPVDTAVYYCARDNWQWYPSTWYDYWGQGTQVTVSS
  polyreactivity (PSR sort gate): high polyreactivity

## QVQLVESGGGLVQAGGSLRLSCAASGSTFGVNAMGWYRQAPGKERELVAAIRWSDGSTYYADSVKGRFTISRDNAKNTVYLQMNSLKPEDTAVYYCNTDLTVYFPVEYWGQGTQVTVSS
  polyreactivity (PSR sort gate): low polyreactivity

## QVQQQESGGGLVQAGGSLRLSCAASGYISVVIGMGWYRQSPGKERELVASIAYGAITYYTDSVKGRFTISRDYAKNTEYLQMNSLKAEDTAVYYCAADKPPLAYHWYWGQGTQATVSS
  polyreactivity (PSR sort gate): high polyreactivity

## QVQLVESGGGLVQAGGSLRLSCAASGRIFIHYAMGGYRHAPGKERELVAAISASGGTTNYADSVKGRFTISRDNAKNTVYLQMNSLKPEDTAVYYCNKDYPQNPLPASSYYLGRFDYWGQGSQVTVSS
  polyreactivity (PSR sort gate): high polyreactivity

## QVQLVESGGGLVQAGGSLRLSCAASGRIFRRNAIGWYRQAPGKERELEAAISSGCGSKYYADSVKGRFTISRDNAKNTVYLQMNSLKPEDTAVYYCNTVFYYDDVSQAHDYWGQGTQVTVSS
  polyreactivity (PSR sort gate): high polyreactivity

## QVQLVESGGGLVQAGGSLRLSCAASGSTFYTNAMGWYRQAPGKERELVAAISASVGSTYYADSVKGRFTISRDNAKNTVYLQMNSLKPEDTAVYYCAADVWASRRYDYWGQGTQVTVSS
  polyreactivity (PSR sort gate): low polyreactivity

## QVEHVESGGGLVQAGGSLRLSCAASGITFAAYAMGWYRQARGTERELVAAISTSGDSTYYADSVKGRFTISRDYAKITVYLQMNSLKPADTAVYYCNDRRYGYGVGRGLYIYDYCGQGTQVTVSS
  polyreactivity (PSR sort gate): high polyreactivity

## QVQLVESGGGLVQAGGSLRLSCAASGSTYYYYAMGSYRPAPGKERELVAAINTSGGITYYADSVKGRFTISRDNAKNTVYLQMNSLKPEDTAVYYCAARNRSYCGTFGSYNYDYWGQGTQVTVSS
  polyreactivity (PSR sort gate): high polyreactivity

## QVQLVESGGGLVQAGGSLRLSCAASGLIFSPYAMGWYRQAPGKERELVAAISWRGGRTSYADSVKGRFTISRDNAKNTVYLQMNSLKPEDTAVYYCATRNSSKRRGYYYWGQGTQVTVSS
  polyreactivity (PSR sort gate): high polyreactivity

## QVQLVESGGGLDQAGGSLRLICAASGFIFEYYAMGWYRQAPGKERELVASITSGGTTYYADSVKGRFTISRDNAKNTVYLQMNSLKPEDTAVDYCAAAWRIWWYHRGEFDYWGQGTQVTVSS
  polyreactivity (PSR sort gate): high polyreactivity

## QVQLVESGGGLVQAGGSLRLSCAASGRIFRVNAMGWYRQAPGKERELVAAISRRGGRTYYADSVKGRFTISRDNAKNTVYLQMNSMKPEDTAVYYCNADSVTSAGSLGRAEYGYWVQGTQVTVSS
  polyreactivity (PSR sort gate): high polyreactivity

## QVQLVESGGGLVQAGGSLRLSCAASGRTFVVYAMGWYGQAPGKERELVAGITTRVGSTYYADSVKGRFTISRDNAKNTVYLQMNSLKPEDTAVYYCAARGSRYVGRVRYDYWGQGTQVTVSS
  polyreactivity (PSR sort gate): high polyreactivity

## QVHLVESGRGLFQAGGSLRLSCAASGFTFTTYVMGWYRQAPGKERELVAAITSGGSTNYADSVKGRFTISRDNAKNTVFLQMNSLKPEDTAVYFCNAVKDDGKGSYPNLHVFDYDYWGQGTQVTVSS
  polyreactivity (PSR sort gate): low polyreactivity

## QVQLVESGGGIVQAGGSLRLICAASGLIFTLYAMGWSRQAPGKERQLVAVISSAGSTNYADSVKGRFTISRDTAKNTVYLQMNSLKPEETAVYYCNAEPTTPYWDYWAYEDDYWGQGTQVTVSS
  polyreactivity (PSR sort gate): low polyreactivity

## QVQRVESGGGLVQAGGRLRLSFAAAGIIFKVNAMGWYRQAPGKERELVPAISWSGSSTYYADSVKGRFTISRDNAKNTVYLQMNSLKPEDTAVYYCGTRWFAVHMYWGQGTQVTVSS
  polyreactivity (PSR sort gate): high polyreactivity

## QVQLVESGGGLVQAGGSLRLSCAASGSTFHRYAMGWYRQAPGKERQLVARINGSGGSTYYADSVKGRFTISRDNAKNTVYLQMNSLKPEDTAVYYCNARAVSVRASTKVPSGLYDFWGQGTQVTVSS
  polyreactivity (PSR sort gate): low polyreactivity

## QVQLVESGGGLVQAGGSLRLSCAASGSTFLFYAMGWYRQAPGKEREFVAAITWSGGSTYYADSVKGRFTISRDNAKNTVYLQMNSLKPEDTAVYYCNGYYVPTTGREFYFAFYYWGQGTQVTVSS
  polyreactivity (PSR sort gate): low polyreactivity

## QVQLVESGGGLVQAGGSLRLSCAASGSIFTYYAMGWYRQAPGKERELVASISWGGGSTYYADSVKGRFTISRDNAKNSVYLQMNSLKPVDTAVYYCATDVYVDYFVGGEYWGQGTQVTVSS
  polyreactivity (PSR sort gate): low polyreactivity

## QVQLVESGGGLVQAGGSLRLSCAASGFIFDAYVMGWYRQAPGKERELVAAITSSGGSTYYADSVKGRFTISRDNAKNTVYLQMNSLKPEDTAVYYCAATYWPWFVGYTYDLDYWGQGTQVTVSS
  polyreactivity (PSR sort gate): low polyreactivity

## QVQLVESGGGLVQAGGSLRLSCAASGSTFGNYAMGGYRQAPGKERELVAVSTSAGSTYYADSVKGRFTISRDNAKNTVYLQMNSLKPEDPAVYYCNTGKHVRYYYWGQGTQVTVSS
  polyreactivity (PSR sort gate): low polyreactivity

## QVQLVDSGGGLVQAGGSLRISCAATGSIFGPNAMGWNRQPPGKERELVAAISRRGGTTYYADSVKGRFTISRDNSKNTFYLQMNSLKPEDTAVYYCATVLYKAYNDYGYWGQGTQVTVSS
  polyreactivity (PSR sort gate): high polyreactivity

## QVQLVETGGGLVQAGGSLRLSCAPSGSIFGLNAMGWYRQAPGKERELVAAINTDGDTYYADSVKGRFTISRDNAKNTVYLQMNSLIPEDTAVFYCAADYYWDPFDSNFGHVPQEYESWGQGTQVTVSS
  polyreactivity (PSR sort gate): low polyreactivity

## QVQLVDSGGGLVQAGGSLRLSCPASGSTFQRYAMGWYRQAPGKERELVAAISSSGVRTYYADSVKGRFTISRDNAKNTVYLQMNSLKPEDTAVYYCATGYIFRYRQSAYDYWGQGTQVTVSS
  polyreactivity (PSR sort gate): high polyreactivity

## QVQLVESGGGLVQAGGTLRLSCAACGRTFPINAMAWYRQAPGKERELVASIRWTDGTTYYADSVKGRFTISRDNAKNTVYLQMNSLKPEDTAVYYCAADAEGSASKYDYWGQGTQVTVSS
  polyreactivity (PSR sort gate): low polyreactivity

## QVQLVESGGGLVQAGGSLRLSCAASGFIFASYAMGWYRQAPGKERELVAAISWRGGSTYYADSVKGRFTISRDNAKNTVYLQMNSLKPEDTAVYYCKAYVYVGTGRGYDTLDYWGQGTQVTVSS
  polyreactivity (PSR sort gate): low polyreactivity

## QVQLVESGGGLVQAGGSLRLSCAASGGIYYRYAKGWYRQAPGKERDLVAVISRSGSTYYADSVKGRFTMSRDNAQNTVYLQMNSLKPEDTAVYYCAAYSRCRYGLVPYDYWGQGTQVTVSS
  polyreactivity (PSR sort gate): high polyreactivity

## QVQLVESGGGFVQAGGSLRLSCAASGFIFGYYAMGWYRQAPGKERELVAAITRSGSRTYYADSVKGRFTISRDNAKNTVYLQMNSLKPEDTAVYYFAKRRYWYYRSRDWFVSGVYWGQGTQVTVSS
  polyreactivity (PSR sort gate): low polyreactivity

## QVQLVESGGCLVQAGGSLRLSCAASGRIFPGYAMVWYRQAPGKERELVAAISASGGSTYYADSVKGRFTISRDNAKNSVYFQIISLKPEDTAVYYCNAVYRLIRFDYWGQGSQVTVSS
  polyreactivity (PSR sort gate): high polyreactivity

## QVQLVESGGGLVQAGGSLRLSCAASGHIFFYYTMGWYRQAPGKERELVAGITIGGSTNYADSVKGRFTISRDNAKNTVYLQMNSLKPEDSAVYYCNVVKYVYIYSYWEYYYWGQGTQVTVSS
  polyreactivity (PSR sort gate): low polyreactivity

## QVQLVESGGGIVQAGGSLRLSWAASGRIFYAYAMRWSRQAPGKERELVASLSGGGSTDYADSVKGRFTISRDNAKNTVVLQMNSLKPEDTAVYYCAAQYYLYRSRFDYWGQGTLVTVSS
  polyreactivity (PSR sort gate): high polyreactivity

## QVQLVESGGGLVQAGGSLRLSCAASGRTFKYYAMGWYRQAPGKERELVAAITYRDRTYYADSVKGRFTISRDNAKNTVYLQMNSLKPEDTAVYYCAAQHYGSDGRGFDYWGQGTQVTVSS
  polyreactivity (PSR sort gate): low polyreactivity

## QVQLVESGGGLVQAGGSLRISCAASGRIFIWYDMGWYRQAPGKERELVAAITQSDDITYYADSVKGRFTISRDNAKNTVYLQMNSLKPEDTAVYYCAARVLETSTPYGYWGQGTQVTVSS
  polyreactivity (PSR sort gate): low polyreactivity

## QVQLVESGGGLVQAGGSLRLSCAASGRIFVTNAMGWYRQAPGKERELVAAITRGGSTNYADSVKGRFTISRDNAKNTVYLQMNSLKPEDTAVYYCAAKRRYYGPWSRIGYDYWGHGTQVTVSS
  polyreactivity (PSR sort gate): low polyreactivity

## QVQLVESGGGLVQAGGSLRLSCAASGRTFIGNVMGWSRQAPGKERELVAAITRSGGSTYYADSVKGRFTISRDNAKNTVYLQMNSLKPEDTAVYYCNAVRRTGGHGDYWGQGTQVTVSS
  polyreactivity (PSR sort gate): high polyreactivity

## QVQLVESGGGLVQAGGSLRLSCAASGRNFGPYAMGWSRQAPGKERELVASITRSGGRTYYADSVKGRYTISRDNAKNTVYLQMNSLKPEDTAVYYCAAGGFSKSYYYWGQGTQVTVSS
  polyreactivity (PSR sort gate): high polyreactivity
